Test results from article PMC10397247.
Where two headings read alike, the source gives them in different places.

Columns and labels:
Experiment in all cases: two-hybrid library CCmax;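 further: natural log of median RNA to DNA barcode read ratio; higher means stronger binding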
P6-AA-1HAA-D = target: T1, P6-AA-1HAA-D; conditions: mean of both orientations
T1 chain: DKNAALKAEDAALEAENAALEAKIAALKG

P6-AA-1HAA-E = target: T2, P6-AA-1HAA-E; conditions: mean of both orientations
T2 chain: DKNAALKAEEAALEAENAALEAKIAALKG

P6-AA-1HAA-H = target: T3, P6-AA-1HAA-H; conditions: mean of both orientations
T3 chain: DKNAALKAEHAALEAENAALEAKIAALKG

P6-AA-1HAA-K = target: T4, P6-AA-1HAA-K; conditions: mean of both orientations
T4 chain: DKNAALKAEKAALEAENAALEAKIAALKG

P6-AA-1HAA-L = target: T5, P6-AA-1HAA-L; conditions: mean of both orientations
T5 chain: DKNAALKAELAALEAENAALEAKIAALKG

P6-AA-1HAA-N = target: T6, P6-AA-1HAA-N; conditions: mean of both orientations
T6 chain: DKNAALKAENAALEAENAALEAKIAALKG

P6-AA-1HAA-R = target: T7, P6-AA-1HAA-R; conditions: mean of both orientations
T7 chain: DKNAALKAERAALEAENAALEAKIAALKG

P6-AA-1HAA-S = target: T8, P6-AA-1HAA-S; conditions: mean of both orientations
T8 chain: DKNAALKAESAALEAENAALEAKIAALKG

P6-AA-1HAA-T = target: T9, P6-AA-1HAA-T; conditions: mean of both orientations
T9 chain: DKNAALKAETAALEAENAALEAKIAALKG

P6-AA-1HAA-V = target: T10, P6-AA-1HAA-V
T10 chain: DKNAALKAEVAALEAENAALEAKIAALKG

P6-AA-1HAA-Y = target: T11, P6-AA-1HAA-Y
T11 chain: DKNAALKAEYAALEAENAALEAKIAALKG

P6-AA-12HAA-D = target: T12, P6-AA-12HAA-D; conditions: mean of both orientations
T12 chain: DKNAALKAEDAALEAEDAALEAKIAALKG

P6-AA-12HAA-E = target: T13, P6-AA-12HAA-E; conditions: mean of both orientations
T13 chain: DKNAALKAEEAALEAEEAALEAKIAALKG

P6-AA-12HAA-H = target: T14, P6-AA-12HAA-H; conditions: mean of both orientations
T14 chain: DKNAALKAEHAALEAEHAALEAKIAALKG

P6-AA-12HAA-K = target: T15, P6-AA-12HAA-K; conditions: mean of both orientations
T15 chain: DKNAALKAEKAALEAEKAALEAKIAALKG

P6-AA-12HAA-L = target: T16, P6-AA-12HAA-L; conditions: mean of both orientations
T16 chain: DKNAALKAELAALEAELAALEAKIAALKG

P6-AA-12HAA-R = target: T17, P6-AA-12HAA-R; conditions: mean of both orientations
T17 chain: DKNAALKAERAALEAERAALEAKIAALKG

P6-AA-12HAA-S = target: T18, P6-AA-12HAA-S
T18 chain: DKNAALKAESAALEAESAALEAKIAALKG

P6-AA-12HAA-T = target: T19, P6-AA-12HAA-T; conditions: mean of both orientations
T19 chain: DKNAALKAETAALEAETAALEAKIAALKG

P6-AA-12HAA-V = target: T20, P6-AA-12HAA-V; conditions: mean of both orientations
T20 chain: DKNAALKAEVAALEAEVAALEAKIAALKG

P6-AA-12HAA-Y = target: T21, P6-AA-12HAA-Y; conditions: mean of both orientations
T21 chain: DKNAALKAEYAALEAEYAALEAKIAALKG

B1: P5-AA-1HAA-D (peptide)
chain: DENAALEAKDAALKAKNAALKAEIAALEG
interaction score (P6-AA-1HAA-D): -1.42 | interaction score (P6-AA-1HAA-E): -1.72 | interaction score (P6-AA-1HAA-H): -0.764 | interaction score (P6-AA-1HAA-K): -1.15 | interaction score (P6-AA-1HAA-L): -0.571 | interaction score (P6-AA-1HAA-N): -1.12 | interaction score (P6-AA-1HAA-R): -1.35 | interaction score (P6-AA-1HAA-S): -1.34 | interaction score (P6-AA-1HAA-T): -1.02 | interaction score (P6-AA-1HAA-V; mean of both orientations): 0.68 | interaction score (P6-AA-1HAA-Y): -0.724

B2: P5-AA-1HAA-Y (peptide)
chain: DENAALEAKYAALKAKNAALKAEIAALEG
interaction score (P6-AA-1HAA-D): -0.899 | interaction score (P6-AA-1HAA-E): -0.129 | interaction score (P6-AA-1HAA-H): -0.1 | interaction score (P6-AA-1HAA-K): 0.174 | interaction score (P6-AA-1HAA-L): 1.72 | interaction score (P6-AA-1HAA-N): 1.76 | interaction score (P6-AA-1HAA-R): -0.286 | interaction score (P6-AA-1HAA-S): 1.55 | interaction score (P6-AA-1HAA-T): 1.28 | interaction score (P6-AA-1HAA-V; mean of both orientations): 1.79 | interaction score (P6-AA-1HAA-Y; mean of both orientations): 1.34

B3: P5-AA-12HAA-S (peptide)
chain: DENAALEAKSAALKAKSAALKAEIAALEG
interaction score (P6-AA-12HAA-D): -1.65 | interaction score (P6-AA-12HAA-E): -1.88 | interaction score (P6-AA-12HAA-H): -1.82 | interaction score (P6-AA-12HAA-K): -1.73 | interaction score (P6-AA-12HAA-L): 0.323 | interaction score (P6-AA-12HAA-R): -1.81 | interaction score (P6-AA-12HAA-S; mean of both orientations): -1.65 | interaction score (P6-AA-12HAA-T): -1.48 | interaction score (P6-AA-12HAA-V): 1.55 | interaction score (P6-AA-12HAA-Y): -0.94 | interaction score (P6-AA-1HAA-N): -1.02

B4: P5-AA-12HAA-T (peptide)
chain: DENAALEAKTAALKAKTAALKAEIAALEG
interaction score (P6-AA-12HAA-D): -2.09 | interaction score (P6-AA-12HAA-E): -1.36 | interaction score (P6-AA-12HAA-H): -1.12 | interaction score (P6-AA-12HAA-K): -1.33 | interaction score (P6-AA-12HAA-L): 1.25 | interaction score (P6-AA-12HAA-R): -1.74 | interaction score (P6-AA-12HAA-S; mean of both orientations): -1.61 | interaction score (P6-AA-12HAA-T): -1.23 | interaction score (P6-AA-12HAA-V): 1.5 | interaction score (P6-AA-12HAA-Y): 0.46 | interaction score (P6-AA-1HAA-N): -1.49

B5: P5-AA-1HAA-K (peptide)
chain: DENAALEAKKAALKAKNAALKAEIAALEG
interaction score (P6-AA-1HAA-D): -0.814 | interaction score (P6-AA-1HAA-E): -0.501 | interaction score (P6-AA-1HAA-H): -0.889 | interaction score (P6-AA-1HAA-K): -0.653 | interaction score (P6-AA-1HAA-L): 1.84 | interaction score (P6-AA-1HAA-N): 1.41 | interaction score (P6-AA-1HAA-R): -1.3 | interaction score (P6-AA-1HAA-S): 0.0853 | interaction score (P6-AA-1HAA-T): 1.53 | interaction score (P6-AA-1HAA-V; mean of both orientations): 2.05 | interaction score (P6-AA-1HAA-Y; mean of both orientations): 0.0221

B6: P5-AA-12HAA-K (peptide)
chain: DENAALEAKKAALKAKKAALKAEIAALEG
interaction score (P6-AA-12HAA-D): -1.9 | interaction score (P6-AA-12HAA-E): -1.48 | interaction score (P6-AA-12HAA-H): -1.46 | interaction score (P6-AA-12HAA-K): -1.5 | interaction score (P6-AA-12HAA-L): 1.03 | interaction score (P6-AA-12HAA-R): -1.57 | interaction score (P6-AA-12HAA-S): -2.76 | interaction score (P6-AA-12HAA-T): -0.798 | interaction score (P6-AA-12HAA-V): 2.22 | interaction score (P6-AA-12HAA-Y): -1.01 | interaction score (P6-AA-1HAA-N): -1.37

B7: P5-AA-1HAA-A (peptide)
chain: DENAALEAKAAALKAKNAALKAEIAALEG
interaction score (P6-AA-1HAA-D): -1.94 | interaction score (P6-AA-1HAA-E): -0.184 | interaction score (P6-AA-1HAA-H): -0.274 | interaction score (P6-AA-1HAA-K): -0.453 | interaction score (P6-AA-1HAA-L): 1.94 | interaction score (P6-AA-1HAA-N): 0.981 | interaction score (P6-AA-1HAA-R): -0.629 | interaction score (P6-AA-1HAA-S): -0.02 | interaction score (P6-AA-1HAA-T): 0.325 | interaction score (P6-AA-1HAA-V): 2.66 | interaction score (P6-AA-1HAA-Y; mean of both orientations): 0.845

B8: P5-AA-12HAA-R (peptide)
chain: DENAALEAKRAALKAKRAALKAEIAALEG
interaction score (P6-AA-12HAA-D): -1.88 | interaction score (P6-AA-12HAA-E): -1.43 | interaction score (P6-AA-12HAA-H): -1.83 | interaction score (P6-AA-12HAA-K): -1.69 | interaction score (P6-AA-12HAA-L): 1.4 | interaction score (P6-AA-12HAA-R): -1.5 | interaction score (P6-AA-12HAA-S; mean of both orientations): -1.83 | interaction score (P6-AA-12HAA-T): -0.88 | interaction score (P6-AA-12HAA-V): 2.1 | interaction score (P6-AA-12HAA-Y): -1.07 | interaction score (P6-AA-1HAA-N): 0.341
